Here are results for one molecule from PMC11170971 (2024).

For experiment [1], the target named is hTLR2 extracellular domain, purified recombinant (human, UniProt O60603 21-588). In words: MST.
The target of experiment [2] is T1, zTLR4ba extracellular domain, purified recombinant (zebrafish).
T1 chain: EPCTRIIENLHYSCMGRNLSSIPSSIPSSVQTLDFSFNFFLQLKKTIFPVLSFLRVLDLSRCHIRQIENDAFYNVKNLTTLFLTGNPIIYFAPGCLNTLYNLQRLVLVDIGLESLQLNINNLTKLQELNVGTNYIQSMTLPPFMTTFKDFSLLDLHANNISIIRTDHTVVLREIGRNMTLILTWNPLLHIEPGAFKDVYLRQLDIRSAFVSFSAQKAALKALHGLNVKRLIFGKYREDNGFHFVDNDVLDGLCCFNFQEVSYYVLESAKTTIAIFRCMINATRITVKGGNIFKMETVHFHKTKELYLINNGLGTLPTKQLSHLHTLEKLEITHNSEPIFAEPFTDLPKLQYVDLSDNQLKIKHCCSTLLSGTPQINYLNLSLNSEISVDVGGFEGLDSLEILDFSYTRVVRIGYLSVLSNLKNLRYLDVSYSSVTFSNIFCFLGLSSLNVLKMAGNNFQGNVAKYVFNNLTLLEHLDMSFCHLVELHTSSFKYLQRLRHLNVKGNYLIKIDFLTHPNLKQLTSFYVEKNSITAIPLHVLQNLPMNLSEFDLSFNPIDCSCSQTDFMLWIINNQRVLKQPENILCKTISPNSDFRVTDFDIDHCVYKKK
Nature of the experiment: MST.

hTLR2 extracellular domain, purified recombinant, sequence (O60603 21-588): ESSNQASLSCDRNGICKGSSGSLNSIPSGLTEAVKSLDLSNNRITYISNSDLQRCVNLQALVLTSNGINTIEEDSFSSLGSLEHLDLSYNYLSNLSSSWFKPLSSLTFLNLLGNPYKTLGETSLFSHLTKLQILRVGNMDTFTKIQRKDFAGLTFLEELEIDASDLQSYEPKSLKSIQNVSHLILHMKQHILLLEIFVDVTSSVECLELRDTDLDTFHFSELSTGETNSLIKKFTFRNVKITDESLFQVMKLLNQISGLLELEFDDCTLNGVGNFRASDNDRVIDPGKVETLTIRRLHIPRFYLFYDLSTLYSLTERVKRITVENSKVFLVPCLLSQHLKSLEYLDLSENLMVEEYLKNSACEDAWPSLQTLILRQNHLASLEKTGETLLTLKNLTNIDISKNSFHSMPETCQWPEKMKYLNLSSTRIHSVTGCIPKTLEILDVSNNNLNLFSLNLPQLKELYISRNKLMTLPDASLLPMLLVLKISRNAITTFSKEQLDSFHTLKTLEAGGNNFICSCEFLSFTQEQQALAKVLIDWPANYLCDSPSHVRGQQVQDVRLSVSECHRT

B1: recombinant His-tagged SpaC protein (SpaC pilin subunit of Lactobacillus rhamnosus GG) (natural protein)
chain: MTAKVARTGHLFAVLLILMSMLTGLVTSGSSVVTATDNIRPTYQTDANGTYPTNSWQVTGQQNVINQRGGDQVSGWDNNTIWNGDATDTTNSYLKFGDPNNPDYQIRKYAKETNTPGLYDVYLNVKGNKQQNVKPVDIVLVVDMSGSMESNRWGTNRAGAVRTGVKNFLTSIQNAGLGNYVNVGLIGFSSPGYIGGKSGYISVKLGKAGNASQQQAINGALSPRFQGGTYTQIGLRQGSAMLNADTSGNKKMMILLTDGVPTFSNEVINSEWINGTLYGTNFGSSRDEPGNTARLRWPYTDSSGHYIYDTWPATLGEAKIAKDSGNEVHALGIQLADDDHYMTKEKIRQNMQLITNSPDLYEDADSADAVEAYLNNQAKDIIKNFNTVTDGTITDPIGTQFQYANNQATVTSVGKQTVPASELPSAAIQDGQLTVNHMNLGQDQEVQIHYQVRIKTEDAGFKPDFWYQMNGETLLTPKAGAAAVDFGIPSGRAPATTVYVQKQWRQLSNQSLPDTLNVTVQRKVADGSLDPNWQQTLVLKKADNWKASFTAPAYNNQGQSFSYVVKSEDASGIDLSSFISSQNMDQQTATLTLTNQQYGFQFQKKTTDGTDLSADQLKAMQFNLTQYSDNSFQQASKTNAITSTDLQALAPGYYGIQEAAAPTGYQLDGTTYLFQLTSDGQWQYHGTKDNVTSGSVINGQQTLNPVGDKSDDFTVTGDHQQILTLTKYDEPKPSMTLRVIKQDNQSQYLAGAAFTLQPSAGEAETITSSATSEGQAFATKLVADGTYTMSETKAPDGYQSNPAKIAIQVATTGKEATVTIDGEALKPGESKNGYTLAIDGSTITLQAINQPLAILPHTGGQGYQRLLGIALGLISAAFLLLLVVLIKRRVVKQHD
modifications: labelled with Monolith Protein Labeling Kit Red-NHS (in the MST only)
For B1, the Kd in experiment [1] worked out at 190 nM; in experiment [2] it was 2980 nM.

For orientation: Kd means the free concentration of one partner at which half of the binding sites on the other are occupied at equilibrium, for simple one-to-one binding.
